In patent publication US11578136B2, “Compositions and methods for treating cancer” (INNATE PHARMA, priority 2017, dated 2023):

Assays:
[1] = biological target: T1, CD39 expressed by Ramos human lymphoma cells (Homo sapiens, UniProt P49961); assay: Inhibition of the enzymatic activity of cellular CD39 in Ramos cells (Cell Titer Glo); format: cell-based
T1 construct: host or cells: Ramos human lymphoma cells
T1 sequence (P49961 1-510): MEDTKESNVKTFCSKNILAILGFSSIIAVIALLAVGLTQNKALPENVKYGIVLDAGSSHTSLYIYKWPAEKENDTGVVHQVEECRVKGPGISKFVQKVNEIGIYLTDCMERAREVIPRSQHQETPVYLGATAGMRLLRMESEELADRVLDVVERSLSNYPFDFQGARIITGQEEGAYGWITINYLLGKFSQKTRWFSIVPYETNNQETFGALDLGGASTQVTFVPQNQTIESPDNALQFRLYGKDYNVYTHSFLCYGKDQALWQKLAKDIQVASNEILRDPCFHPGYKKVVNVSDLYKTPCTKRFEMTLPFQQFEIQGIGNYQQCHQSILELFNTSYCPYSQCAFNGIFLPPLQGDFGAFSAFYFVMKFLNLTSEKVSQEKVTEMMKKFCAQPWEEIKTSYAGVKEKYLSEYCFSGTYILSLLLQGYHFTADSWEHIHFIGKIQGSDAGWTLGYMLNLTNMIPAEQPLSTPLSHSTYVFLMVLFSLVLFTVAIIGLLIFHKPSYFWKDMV
Method: (§1) The inhibition of the CD39 enzymatic activity in CD39-expressing cells by antibodies was evaluated using Cell Titer Glo™ (Promega, reference G7571) that allows assessment of ATP hydrolysis through use of a reagent that generates a luminescent signal proportional to the amount of ATP present. The assay was thus designed to permit assessment of the inhibition of ATP hydrolyzed by CD39 in the cell culture supernatant. Briefly, 5×10^4 Ramos human lymphoma cells, 5×10^3 human CD39-, cynomolgus CD39- and mouse CD39-expressing CHO cells, were incubated 1 hour at 37° C. with anti-CD39 antibodies from 30 μg/ml to […]. Cells were then incubated with 20 μM ATP for 1 additional hour at 37° C. Plates were centrifuged for 2 min at 400 g and 50 μl cell supernatant are transferred in a luminescence microplate (white wells). 50 μl CellTiter-Glo® Reagent (CTG) was added to the supernatant and emitted light was quantified after a 5 min incubation in the dark using a Enspire™ luminometer. Anti-CD39 antibody efficacy was determined by comparing emitted light in presence of antibody with ATP alone (maximal light emission) and ATP together with cells (minimal light emission).
(§2) The inhibition by antibody I-394 of the ATPase activity of CD39 in CD39-expressing cells was evaluated using the assay used for inhibition of the enzymatic activity of cellular CD39 as described above (Methods).

[2] = biological target: T2, human CD39-expressing CHO cells (CHO-huCD39) (Homo sapiens, UniProt P49961); assay: Inhibition of the enzymatic activity of cellular CD39 in CHO-huCD39; format: cell-based; details: result in words
T2 construct: expressed in transfected cells; host or cells: CHO cells
T2 sequence (P49961 1-510): T1 sequence (P49961 1-510)
Method: as §1, §2

[3] = biological target: T3, Human CD39-L1 (NTPDase2, ENTPD2) (Homo sapiens, UniProt Q9Y5L3); assay: ELISA titration on CD39-L1; format: binding; details: result in words
T3 sequence (Q9Y5L3 1-472 isoform Q9Y5L3-2): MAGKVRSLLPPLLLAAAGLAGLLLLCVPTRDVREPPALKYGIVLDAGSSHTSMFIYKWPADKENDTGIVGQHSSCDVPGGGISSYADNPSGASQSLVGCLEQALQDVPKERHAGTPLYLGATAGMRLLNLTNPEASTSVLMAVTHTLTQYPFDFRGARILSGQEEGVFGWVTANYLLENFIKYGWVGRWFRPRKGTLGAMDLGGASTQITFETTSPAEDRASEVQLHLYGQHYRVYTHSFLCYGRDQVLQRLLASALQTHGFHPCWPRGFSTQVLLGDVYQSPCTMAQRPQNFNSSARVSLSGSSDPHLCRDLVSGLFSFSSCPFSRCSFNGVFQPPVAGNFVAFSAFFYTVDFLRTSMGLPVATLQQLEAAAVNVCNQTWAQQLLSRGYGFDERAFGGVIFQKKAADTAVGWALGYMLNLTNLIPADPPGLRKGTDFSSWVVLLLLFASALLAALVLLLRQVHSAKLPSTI
Method: (§3) Antibody I-394 was tested for binding to recombinant human CD39 isoforms (Rec-huCD39 isoforms) having amino acid sequences shown below were coated in 96-well plate in PBS 1× at 500 ng/ml or 1 μg/ml at 4° C. overnight. Wells were washed in TBS Tween 20, and further saturated 2H at RT in TBS Blocking buffer. Dose range concentration of primary antibody was incubated in TBS blocking buffer for 2 h at RT. Wells were washed in TBS Tween 20. […] Optical density was measured on Enspire™ at OD=450.

[4] = biological target: T4, Human CD39-L4 (NTPDase5, ENTPD5) (Homo sapiens, UniProt O75356); assay: ELISA titration on CD39-L4; format: binding; details: result in words
T4 sequence (O75356 25-428): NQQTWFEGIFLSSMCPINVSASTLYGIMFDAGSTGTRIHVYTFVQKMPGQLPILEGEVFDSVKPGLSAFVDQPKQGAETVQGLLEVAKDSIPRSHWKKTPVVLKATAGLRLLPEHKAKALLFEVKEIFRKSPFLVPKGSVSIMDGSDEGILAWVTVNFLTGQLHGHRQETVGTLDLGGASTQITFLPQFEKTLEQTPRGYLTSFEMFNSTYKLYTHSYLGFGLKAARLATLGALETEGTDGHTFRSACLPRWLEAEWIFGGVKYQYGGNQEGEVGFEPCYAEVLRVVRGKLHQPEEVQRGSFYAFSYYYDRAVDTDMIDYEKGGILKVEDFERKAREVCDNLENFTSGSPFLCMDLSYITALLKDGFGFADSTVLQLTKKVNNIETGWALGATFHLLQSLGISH
Method: as §3

allogenic CD4 T cells = assay: Mixed lymphocytes reaction (MLR) with ATP-activated DC; format: cell-based, human; details: MoDC activated with ATP plus antibody; 5 days
Method: Briefly, human monocytes were purified from human healthy blood and differentiated into MoDC in presence of GM-CSF and IL-4 during 6 days. Then MoDC were activated in presence of ATP (Sigma, 0.25-1 mM) during 24 hours and DC activation were assessed by analyzing CD80, CD83 and HLA-DR expression by flow cytometry. In some cases, MoDC were preincubated during 1 hours in presence of CD39 inhibitor: […] (Tocris, 250 μM), CD73 inhibitor: APCP (Tocris 50 μM), anti-CD39 blocking antibody I-394 or BY40 (for BY40 see WO2009/095478), or anti-CD73 blocking antibodies. LPS (Invivogen, 10 ng/ml) was used as positive control. To assess resulting effect of ATP-mediated DC activation on CD4 T cells activation, ATP-activated DC were washed and then incubated with allogenic CD4 T cells (ratio 1 MoDC/4 T cells) for a mixed lymphocytes reaction (MLR) during 5 days. T cells activation and proliferation were analyzed through CD25 expression and Cell Trace Violet dilution by flow cytometry (FIG. 8).

With “I-394: anti-CD39 antibody, VH SEQ ID NO: 6, VL SEQ ID NO: 7; human IgG1 Fc with L234A/L235E/G237A/A330S/P331S” the “potency at blocking CD39 in Ramos cells compared to all other antibodies tested” value [1] was “greater potency”, the “maximum inhibition achieved, cellular CD39” value ([1]; Ramos cells) was 81.6% and the “blocking CD39 enzymatic activity in tumor (Ramos) cells” value ([1]; result in words) was “highly potent”. The “blocking CD39 enzymatic activity in CHO-huCD39” value [2] was “blocks”, the “binding to CD39-L1 in ELISA” value [3] was “not” and the “binding to CD39-L4 in ELISA” value [4] was “not”. For the same substance, the “T cells proliferation and activation in MLR (CD25 expression, Cell Trace Violet dilution)” value (allogenic CD4 T cells) was “higher T cells proliferation and activation”.
